Results published in IntAct's records for PubMed 27820671.

B1: LIM/homeobox protein Lhx4 (Homo sapiens), Q969G2 (parent)
chain: MMQSATVPAEGAVKGLPEMLGVPMQQIPQCAGCNQHILDKFILKVLDRHWHSSCLKCADCQMQLADRCFSRAGSVYCKEDFFKRFGTKCTACQQGIPPTQVVRKAQDFVYHLHCFACIICNRQLATGDEFYLMEDGRLVCKEDYETAKQNDDSEAGAKRPRTTITAKQLETLKNAYKNSPKPARHVREQLSSETGLDMRVVQVWFQNRRAKEKRLKKDAGRHRWGQFYKSVKRSRGSSKQEKESSAEDCGVSDSELSFREDQILSELGHTNRIYGNVGDVTGGQLMNGSFSMDGTGQSYQDLRDGSPYGIPQSPSSISSLPSHAPLLNGLDYTVDSNLGIIAHAGQGVSQTLRAMAGGPTSDISTGSSVGYPDFPTSPGSWLDEMDHPPF
partner: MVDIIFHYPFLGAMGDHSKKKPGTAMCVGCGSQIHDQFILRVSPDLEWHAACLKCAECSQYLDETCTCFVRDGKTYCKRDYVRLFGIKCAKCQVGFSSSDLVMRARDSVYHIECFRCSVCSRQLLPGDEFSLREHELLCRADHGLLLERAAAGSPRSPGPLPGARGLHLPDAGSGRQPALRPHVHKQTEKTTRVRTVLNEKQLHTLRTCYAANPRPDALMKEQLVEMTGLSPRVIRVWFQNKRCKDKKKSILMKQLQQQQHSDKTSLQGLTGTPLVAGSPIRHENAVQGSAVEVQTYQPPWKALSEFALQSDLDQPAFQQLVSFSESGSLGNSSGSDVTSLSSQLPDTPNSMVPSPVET
B2: LIM/homeobox protein Lhx4 (Homo sapiens), Q969G2 (parent)
chain: B1 chain
partner: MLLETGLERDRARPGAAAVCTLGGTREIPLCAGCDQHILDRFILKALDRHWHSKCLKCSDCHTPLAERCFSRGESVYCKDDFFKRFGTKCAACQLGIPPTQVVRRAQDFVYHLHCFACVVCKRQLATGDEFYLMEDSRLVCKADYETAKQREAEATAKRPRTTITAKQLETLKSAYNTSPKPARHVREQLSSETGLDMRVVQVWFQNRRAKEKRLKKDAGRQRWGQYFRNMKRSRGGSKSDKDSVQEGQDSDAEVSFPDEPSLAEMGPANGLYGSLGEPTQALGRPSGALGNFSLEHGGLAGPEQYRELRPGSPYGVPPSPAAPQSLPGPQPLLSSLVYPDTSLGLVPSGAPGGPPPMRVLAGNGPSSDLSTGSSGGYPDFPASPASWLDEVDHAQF

Variants of: B1
Settings: with isl2_human ISL2, Q96A47

effect of a mutation on the interaction	Variant
decreasing interaction strength	C57A;C60A
with no effect	A65V

Variants of: B2
Settings: with lhx3_human LHX3, Q9UBR4

effect of a mutation on the interaction	Variant
with no effect	A65V
decreasing interaction strength	C57A;C60A
